According to US11866760B2, “Microorganisms for the production of insect pheromones and related compounds” (Provivi, Inc., priority 2017, dated 2024):

T1: ALE1p (=LCA1p) (Saccharomyces cerevisiae, UniProt Q08548)
T1 sequence (Q08548 1-619): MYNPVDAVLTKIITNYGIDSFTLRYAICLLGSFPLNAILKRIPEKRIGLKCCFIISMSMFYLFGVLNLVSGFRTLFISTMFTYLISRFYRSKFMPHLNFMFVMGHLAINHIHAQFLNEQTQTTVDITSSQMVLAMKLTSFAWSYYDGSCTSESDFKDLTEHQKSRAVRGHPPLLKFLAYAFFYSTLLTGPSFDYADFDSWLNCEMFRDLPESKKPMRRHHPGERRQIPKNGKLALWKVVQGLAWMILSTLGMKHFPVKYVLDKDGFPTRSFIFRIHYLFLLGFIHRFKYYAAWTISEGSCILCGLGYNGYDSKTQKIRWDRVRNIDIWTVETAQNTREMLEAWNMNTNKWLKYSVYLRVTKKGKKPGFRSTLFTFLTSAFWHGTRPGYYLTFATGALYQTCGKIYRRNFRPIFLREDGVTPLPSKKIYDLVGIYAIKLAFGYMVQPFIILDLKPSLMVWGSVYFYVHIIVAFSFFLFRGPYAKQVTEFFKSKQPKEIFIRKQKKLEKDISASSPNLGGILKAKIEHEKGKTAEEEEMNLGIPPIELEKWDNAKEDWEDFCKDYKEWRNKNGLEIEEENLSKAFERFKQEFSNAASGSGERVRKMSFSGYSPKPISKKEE


Key:
ALE1p (=LCA1p) = target: T1, ALE1p (=LCA1p); settings: Chen Q et al. 2007; cited from earlier work
methyl palmitate [1] = test: HaFAR mutant library cultivation in shake flasks; assay type: cell-based, Yarrowia lipolytica; settings: shake flask experiments, 10 g/L methyl palmitate
Protocol: In a first step a shake flask experiment of the respective strains was performed to analyze fatty alcohol and fatty acid formation over time. The best performing clone of the strains expressing HaFAR, HaFAR S195A and HaFAR S418A were tested. 10 mL YPD was inoculated from patches of individual clones and incubated for 24 h at 28° C., 250 rpm in a 125 mL shake flask. Next, 25 mL YPD were inoculated with 5 mL starter culture in 500 mL shake flasks and incubated for 24 h at 28° C., 250 rpm. The cells were harvested and the pellets were resuspended in 15 mL S2 media and 10 g/L methyl palmitate was added. OD600 was measured and subsequently methyl palmitate was added. […] 4×0.5 mL samples were taken every 24 h and stored at −20° C. until analyzed according to a previously established standard protocol (FIG. 47 and FIG. 48). To improve sampling and reduce the standard deviation, samples were transferred directly into GC crimp vials and stored until analyzed.
Thus, sampling was reduced to 20 h. In previous 24 well plate bioconversion experiments the measured biomass was ˜2× higher compared to the shake flask experiment. […] The cells were harvested and the pellets were resuspended in 10 mL S2 media and 10 g/L, OD600 was measured and subsequently methyl palmitate was added. […] 4×0.5 mL samples were taken and analyzed according to a previously established standard protocol (FIG. 49). […]

methyl palmitate [2] = test: HaFAR mutant library cultivation in 24 well plates in Y. lipolytica SPV603; assay type: cell-based, Yarrowia lipolytica; settings: second FAR copy in SPV603, 24 well plates
Protocol: Four individual clones of positive integrants were tested. Cultivation was performed in 24 well plates. Briefly, 2 mL YPD was inoculated from patches of individual clones and incubated for 24 h at 28° C., 1000 rpm. After 24 h OD600 was measured and the cells were centrifuged at 1000 rpm (Table 23). The cell pellets were resuspended in 1 mL S2 media and 10 g/L methyl palmitate was added. The cells were incubated for 18 h at 28° C., 1000 rpm. Cultivations were stored at −20° C. until analyzed. Extraction and analysis was performed according to previously established standard protocols using GC-FID.
In a first round four individual isolate from each transformation was tested. Cultivation was performed in 24 well plates. 2 mL YPD was inoculated from patches of individual clones and incubated for 24 h at 28° C., 1000 rpm. After 24 h OD600 was measured and the cells were centrifuged at 1000 rpm. The cell pellets were resuspended in 1 mL S2 media and 10 g/L methyl palmitate was added. The cells were incubated for 24 h at 28° C., 1000 rpm. Cultivations were stored at −20° C. until analyzed. Next, four clones of the best performing positive integrant were tested. Cultivation was performed in 24 well plates. 2 mL YPD was inoculated from patches of individual clones and incubated for ˜28 h at 28° C., 1000 rpm. After 28 h OD600 was measured and the cells were centrifuged at 1000 rpm. The cell pellets were resuspended in 1 mL S2 media and 10 g/L methyl palmitate was added. The cells were incubated for 18 h at 28° C., 1000 rpm. Cultivations were stored at −20° C. until analyzed.
Cell pellets were resuspended with 500 μL 5% NaOH (in methanol) then heated for 1 hour at 85° C. Samples were cooled down and then acidified by adding 400 μL 5N HCl. Next, 500 μL chloroform (containing 1 mM C17:0 heptadecanoate internal standard) were added to samples. Samples were mixed vigorously then spun down for 2 minutes at 13,000 RPM using a table top centrifuge. 450 μL chloroform were transferred to a new vial then evaporated at 85° C. for ˜15 minutes. Samples were then resuspended in 50 μL BSTFA (and were now ready for GC analysis). After analysis of the fatty alcohols samples were diluted ˜1:10 and rerun on the GC to improve peak separation of the fatty acid peaks.
All quantifications were based on the concentration of the internal standard. The concentration of the internal standard C17ME is 1 mM. The final concentration of fatty alcohols as well as fatty acids were calculated based on the effective carbon number compared to the internal standard.

Row | Molecule | inhibitory concentration (ALE1p (=LCA1p)) | Z11-16OH titer (methyl palmitate [1]) [mg/L] | Z11-16OH titers compared to the HaFAR double copy strain (methyl palmitate [2])
1 | [Zn+2] [Zn2+] | above 0.1 mM | – | –
2 | HaFAR (S418A) (protein) MVVLTSKETKPSVAEFYAGKSVFITGGTGFLGKVFIEKLLYSCPDIENIYMLIREKKGLSVSERIKQFLDDPLFTRLKDKRPADLEKIVLIPGDITAPDLGINSENEKMLIEKVSVIIHSAATVKFNEPLPTAWKINVEGTRMMLALSRRMKRIEVFIHISTAYTNTNREVVDEILYPAPADIDQVHQYVKDGISEEDTEKILNGRPNTYTFTKALTEHLVAENQAYVPTIIVRPSVVAAIKDEPLKGWLGNWFGATGLTVFTAKGLNRVIYGHSSYIVDLIPVDYVANLVIAAGAKSSKSTELKVYNCCSSSCNPVTIGTLMSMFADDAIKQKSYAMPLPGWYIFTKYKWLVLLLTFLFQVIPAYVTDLSRHLIGKSPRYIKLQSLVNQTRSSIDFFTNHSWVMKADRVRELYASLAPADKYLFPCDPTDINWTHYIQDYCWGVRHFLEKKSYE | – | ~80 | distinct increase of Z11-16OH titers
3 | HaFAR (S195A) (protein) MVVLTSKETKPSVAEFYAGKSVFITGGTGFLGKVFIEKLLYSCPDIENIYMLIREKKGLSVSERIKQFLDDPLFTRLKDKRPADLEKIVLIPGDITAPDLGINSENEKMLIEKVSVIIHSAATVKFNEPLPTAWKINVEGTRMMLALSRRMKRIEVFIHISTAYTNTNREVVDEILYPAPADIDQVHQYVKDGIAEEDTEKILNGRPNTYTFTKALTEHLVAENQAYVPTIIVRPSVVAAIKDEPLKGWLGNWFGATGLTVFTAKGLNRVIYGHSSYIVDLIPVDYVANLVIAAGAKSSKSTELKVYNCCSSSCNPVTIGTLMSMFADDAIKQKSYAMPLPGWYIFTKYKWLVLLLTFLFQVIPAYVTDLSRHLIGKSPRYIKLQSLVNQTRSSIDFFTNHSWVMKADRVRELYASLSPADKYLFPCDPTDINWTHYIQDYCWGVRHFLEKKSYE | – | ~120 | distinct increase of Z11-16OH titers
